Source: publication PMC5386860, “Variants of the Sir4 Coiled-Coil Domain Improve Binding to Sir3 for Heterochromatin Formation in Saccharomyces cerevisiae” (G3: Genes|Genomes|Genetics, 2017)
Changes are numbered by the printed parent chain. Names and notes keep the numbering of the source.

B1: Sir4 (1217–1358) (domain or fragment, S. cerevisiae, UniProt P11978 1217-1358, looked up)
chain: SNTTEILTSVDVLGTHSQTGTQQSNMYTSTQKTELEIDNKDSVTECSKDMKEDGLSFVDIVLSKAASALDEKEKQLAVANEIIRSLSDEVMRNEIRITSLQGDLTFTKKCLENARSQISEKDAKINKLMEKDFQVNKEIKPY
notes: source: E. coli BL21 Rosetta, purified (Ni-NTA, Superdex 75)
B2: Sir4-ETK (1217–1358) (domain or fragment, S. cerevisiae, UniProt P11978 1217-1358, looked up)
chain: B1 chain with E94V, T98S, K109R
notes: also called Sir4-E1310V, T1314S, K1325R coiled-coil fragment; source: E. coli BL21 Rosetta, purified (Ni-NTA, Superdex 75)

How the values were obtained:
[1] = molecular target: T1, Sir3 (464–978) (S. cerevisiae, UniProt P06701 464-978); assay: SEC; proteins mixed in equimolar ratio, 40 min on ice; Superdex 200 Increase 3.2/300, isocratic flow, 4°; fractions on SDS-PAGE, Coomassie; conditions: both partners purified
T1 construct: Purification according to Chang et al. (2003) and King et al. (2006); also called wild-type Sir3 fragment; source: E. coli BL21 Rosetta, purified (Ni-IDA, ion exchange, Superdex 200)

[2] = molecular target: T2, Sir3-1067(464–978) (S. cerevisiae, UniProt P06701 464-978, K657A | K658A); assay: as above; conditions: both partners purified
T2 construct: also called mutant Sir3 fragment; source: E. coli BL21 Rosetta, purified (Ni-IDA, ion exchange, Superdex 200)
T2 sequence (P06701 464-978 K657A/K658A): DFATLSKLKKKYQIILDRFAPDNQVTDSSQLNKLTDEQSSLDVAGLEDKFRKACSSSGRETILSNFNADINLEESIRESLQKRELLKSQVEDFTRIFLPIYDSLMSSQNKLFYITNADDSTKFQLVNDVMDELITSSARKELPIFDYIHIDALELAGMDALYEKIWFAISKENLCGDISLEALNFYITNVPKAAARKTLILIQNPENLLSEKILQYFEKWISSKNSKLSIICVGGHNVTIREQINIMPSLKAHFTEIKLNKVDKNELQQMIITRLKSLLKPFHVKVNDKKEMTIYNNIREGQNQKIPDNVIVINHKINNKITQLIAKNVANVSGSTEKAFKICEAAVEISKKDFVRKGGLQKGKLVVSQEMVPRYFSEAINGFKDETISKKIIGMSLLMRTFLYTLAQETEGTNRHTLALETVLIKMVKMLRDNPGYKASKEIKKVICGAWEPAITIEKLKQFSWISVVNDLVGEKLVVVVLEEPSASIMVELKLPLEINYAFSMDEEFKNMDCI

T1 sequence (P06701 464-978): as the sequence (P06701 464-978 K657A/K658A) above, with A194K, A195K counted along it

Binder	binding result [1]	binding result [2]
B1	binds	
B2		binds
